The experiment addresses T1, mEGFP-SRSF2, Q01130.
T1 chain: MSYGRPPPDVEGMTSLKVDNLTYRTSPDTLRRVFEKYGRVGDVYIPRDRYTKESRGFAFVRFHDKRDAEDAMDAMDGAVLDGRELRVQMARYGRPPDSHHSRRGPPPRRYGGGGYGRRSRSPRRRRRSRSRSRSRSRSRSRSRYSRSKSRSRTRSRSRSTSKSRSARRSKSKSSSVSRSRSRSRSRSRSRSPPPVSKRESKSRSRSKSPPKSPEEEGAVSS
In words: SEC-MALS; purified protein, static light scattering after the molecular sieve; before addition of PEG8000. To be noted: remark: other sources report otherwise.

B1: mEGFP-SRSF2, Q01130 1-221 (natural protein)
chain: MSYGRPPPDVEGMTSLKVDNLTYRTSPDTLRRVFEKYGRVGDVYIPRDRYTKESRGFAFVRFHDKRDAEDAMDAMDGAVLDGRELRVQMARYGRPPDSHHSRRGPPPRRYGGGGYGRRSRSPRRRRRSRSRSRSRSRSRSRSRYSRSKSRSRTRSRSRSTSKSRSARRSKSKSSSVSRSRSRSRSRSRSRSPPPVSKRESKSRSRSKSPPKSPEEEGAVSS
By stoichiometry N is commonly meant the number of molecules, sites or subunits per partner or assembly. As for B1, the stoichiometry N was determined as 5000.

Source of the values: article PMC10258192.
